Test results published in patent US20120115741A1 (BRACCO IMAGING S P A, published 2012).

Experiments:
Assay in all cases: phage ELISA, Fab adsorbed on plate, peptide-displaying phage added, anti-M13-HRP detection
[1] = target: T1, Phage-displayed dodecapeptide of SEQ ID NO 6 (Ph.D.-12 library clone) (filamentous phage M13)
T1 construct: In the screening ELISA the peptide stood on whole M13 phage particles, not as a free peptide; not shown: cpIII coat protein of the filamentous phage M13; the dodecapeptide is at its N-terminus
T1 peptide: MQSPFTPHFAER

[2] = target: T2, Phage-displayed dodecapeptide of SEQ ID NO 7 (Ph.D.-12 library clone) (filamentous phage M13)
T2 construct: In the screening ELISA the peptide stood on whole M13 phage particles, not as a free peptide; not shown: cpIII coat protein of the filamentous phage M13; the dodecapeptide is at its N-terminus
T2 peptide: MQSPIVLPLSLS

[3] = target: T3, Phage-displayed dodecapeptide of SEQ ID NO 5 (Ph.D.-12 library clone) (filamentous phage M13)
T3 construct: In the screening ELISA the peptide stood on whole M13 phage particles, not as a free peptide; not shown: cpIII coat protein of the filamentous phage M13; the dodecapeptide is at its N-terminus
T3 peptide: TMGFTAPRFPHY

[4] = target: T4, Phage-displayed dodecapeptide of SEQ ID NO 8 (Ph.D.-12 library clone) (filamentous phage M13)
T4 construct: In the screening ELISA the peptide stood on whole M13 phage particles, not as a free peptide; not shown: cpIII coat protein of the filamentous phage M13; the dodecapeptide is at its N-terminus
T4 peptide: HHEPGAWLPLSP

Measured: OD450nm

B1: Fab 68 (soluble Fab, heavy chain clone 6 and light chain clone 8 from a coronary plaque sample) (Fab, V domains shown)
VH: LEESGAEVKKPGENLKISCEASGYNFVNHWIGWVRQMPGRGLEWMGRIYPGDSETRFSPSFQGQVTISVDKTLSTASLQWNSLKTSDSATYYCVTLGRWSSWQGGALSWGQGT
VL: ELTQSPATVSVSPGERATLSCRASQSISFHLAWYQQKPGQAPSLLIYGTSTRATGIPARFSGSGSGTEFTLTISSLQSEDSAVYYCQQYHNWPPLTFGGGT
notes: also called Fab of the invention; Fabs of the present invention
> 1 OD450nm: all assays above
